Key:
[1] = target: the molecule itself; assay: SEC; Superdex 75 in 25 mM TRIS-HCl pH 8.0, 250 mM NaCl, 5% glycerol, 2 mM DTT (reducing conditions)
[2] = target: the molecule itself; assay: crystal structure; disulfide-locked PICK1 PDZ-QSAV dimer, crystallised with 4.5 molar equivalents of BIO124; 0.1 M BisTRIS pH 5.5, 25% PEG3350, 4°C; 2.44 Å
[3] = target: T1, lysine-methylated dimeric PICK1 PDZ-QSAV (human | , UniProt Q9NRD5 1-105, surface lysines methylated with 19C-labeled formaldehyde (so in the source)); assay: NMR titration; 1H-13C HSQC of lysine-methylated dimeric PICK1 PDZ-QSAV with GluA2 peptide added; 40 mM sodium phosphate pH 6.8, 150 mM NaCl, 0.2 mM EDTA, DMSO, D2O; 298 K; settings: both partners purified
T1 construct: human PICK1, residues 1 to 105, holding the PDZ domain; The methods say 'dimeric PICK1 PDZ-QSAV'; also called methylated PICK1 PDZ material; source: E. coli BL21 (DE3), purified; surface lysines methylated with labelled formaldehyde and sodium cyanoborohydride
T1 chain: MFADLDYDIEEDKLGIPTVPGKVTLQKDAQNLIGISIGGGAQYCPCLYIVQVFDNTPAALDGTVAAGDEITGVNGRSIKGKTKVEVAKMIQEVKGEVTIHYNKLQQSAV

[4] = target: the molecule itself; assay: crystal structure; disulfide-bridged, bCPA-treated PICK1 PDZ-QS dimer with BIO124, seeded with PICK1 PDZ-QSAV crystals; 0.1 M BisTRIS pH 5.5, 25% PEG3350, 4°C; 1.75 Å

B1: PICK1 PDZ-QSAV (unlocked, reduced dimer) (domain or fragment)
chain: MFADLDYDIEEDKLGIPTVPGKVTLQKDAQNLIGISIGGGAQYCPCLYIVQVFDNTPAALDGTVAAGDEITGVNGRSIKGKTKVEVAKMIQEVKGEVTIHYNKLQQSAV
notes: The His tag is TEV cleavable; no cleavage step is described; also called PICK1 PDZ-QSAV protein; source: E. coli BL21 (DE3), purified (nickel resin, Superdex 75)
stoichiometry N [1]: 2

B2: disulfide-bridged (locked) PICK1 PDZ-QSAV dimer (domain or fragment)
chain: MFADLDYDIEEDKLGIPTVPGKVTLQKDAQNLIGISIGGGAQYCPCLYIVQVFDNTPAALDGTVAAGDEITGVNGRSIKGKTKVEVAKMIQEVKGEVTIHYNKLQQSAV
modifications: intermolecular disulfides C44(A)-C46(B) and C44(B)-C46(A)
notes: human PICK1, residues 1 to 105, holding the PDZ domain; Same construct as m1 after oxidation; crystallised in the presence of BIO124, which was not seen in the structure; also called dimeric PICK1 PDZ-QSAV; oxidized dimer; source: E. coli BL21 (DE3), purified (nickel resin, Superdex 75), oxidised with 2.5 mM H2O2, Superdex 75
binding result [2]: binds

B3: wild type GluA2 peptide (VYGIESVKI) (peptide)
peptide: VYGIESVKI
notes: also called Wt GluR2 peptide; source: synthetic peptide, bought: New England Peptide
binding result [3]: binds

B4: bCPA-treated PICK1 PDZ-QS (disulfide-bridged dimer, with BIO124) (domain or fragment)
chain: MFADLDYDIEEDKLGIPTVPGKVTLQKDAQNLIGISIGGGAQYCPCLYIVQVFDNTPAALDGTVAAGDEITGVNGRSIKGKTKVEVAKMIQEVKGEVTIHYNKLQQS
modifications: disulfide-bridged dimer
notes: human PICK1, residues 1 to 105, holding the PDZ domain; what is left of the fused PKCalpha QSAV tail after removal of the 0 and -1 position residues (AV) by carboxypeptidase A; Removal of AV was >95% by mass spectrometry; the small molecule BIO124 sits in the peptide groove of both chains; also called PICK1 PDZ-QS BIO124 complex; PICK1-PDZ-BIO124; source: E. coli BL21 (DE3), purified, oxidised …
binding result [4]: binds
